Legend:
integrin αvβ3 = molecular target: T1, integrin αvβ3 (Homo sapiens, UniProt P05106+P06756); assay: Integrin αvβ3 receptor binding assay (competitive displacement of 125I-echistatin on U87MG cells); settings: 125I-echistatin radioligand, 3 h, room temperature
T1 construct: host or cells: U87MG human glioblastoma cells (whole cells in suspension)

[1] = Probe stability in PBS by radio-HPLC; type: physicochemical; settings: for parent [64Cu]1 remaining (radiochemical purity): PBS, room temperature
Protocol: The in vitro stability of [^64Cu]1 was evaluated in PBS buffer by radio-HPLC. […] This high stability is attributed to Sar cage in the conjugate. In addition, it is known that the U87MG cell line over-expresses integrin αvβ3 receptor [13].
All chemicals and solvents were obtained from Aldrich (Milwaukee, Wis., USA) and used without further purification. 1,8-Diamino-3,6,10,13,16,19-hexaazabicyclo[6.6.6]-eicosine was purchased from Areva Med (Dallas, Tex.). ^125I-Echistatin was obtained from Perkin-Elmer (Waltham, Mass.). ^1H and ^13C nuclear magnetic resonance (NMR) were recorded on a Varian 400 MHz spectrometer. Mass spectrum was obtained on a ThermoElectron Finnigan LTQ mass spectrometer equipped with an electrospray ionization (ESI) source (Thermo Scientific, USA). HPLC analyses were carried out on an analytical reversed-phase high performance liquid chromatography (HPLC) system equipped with a dual UV absorbance detector (Waters 2487) using a phenomenex C18 RP (250×4.6 mm 5 micron). The flow was 1 mL/min, with the mobile phase starting from 100% solvent A (0.1% TFA in water), followed by a gradient mobile phase to 20% solvent A and 80% solvent B (0.1% TFA in acetonitrile) at 30 min. The UV absorbance was monitored at 214 nm and the identification of the peptides was confirmed based on the UV spectrum using a PDA detector. The radioactivity was detected by a model of Ludlum 2200 single-channel radiation detector. The stability study was performed under the same HPLC condition. MicroPET scans were performed on a microPET R4 rodent model scanner (Siemens Medical Solutions USA, Inc., Knoxyille, Tenn.). The scanner has a computer-controlled bed and 10.8-cm transaxial and 8-cm axial fields of view (FOVs). It has no septa and operates exclusively in the 3-dimensional (3D) list mode. Animals were placed near the center of the FOV of the scanner.
The stability of [^64Cu]1 was tested in PBS. In brief, 3.7 MBq of the [^64Cu]1 was pipetted into 0.5 mL of the PBS and incubated in PBS at room temperature. At various time points (1, 6, and 24 h), an aliquot of the solution was taken and the radiochemical purity was determined by reverse-phase HPLC under identical conditions. The parent [^64Cu]1 was determined to be >99%, 98%, and 96% at 1, 6, and 24 h, respectively.

[2] = Partition coefficient (1-octanol/PBS); type: physicochemical; settings: 1-octanol / PBS pH 7.4, triplicate
Protocol: The partition coefficient value was expressed as log P. Log P of [^64Cu]1 was determined by measuring the distribution of radioactivity in 1-octanol and PBS. Approximately 111 kBq of [^64Cu]1 in 2 μL of PBS (pH=7.4) was added to a vial containing 0.5 mL 1-octanol and 0.5 mL of PBS (pH=7.4). After vigorously vortexing for 10 min, the vial was centrifuged at 12,500 rpm for 5 min to ensure the complete separation of layers. 200 μL of each layer was pipetted into test tubes, and radioactivity was measured using a gamma counter (Perkin-Elmer Packard Cobra). The mean value was calculated from triplicate experiments. The log P value of [^64Cu]1 was determined to be […].

in vivo = assay: in vivo; set-up: species or system mice; settings: female, athymic nude, mouse, iv, 7.4 MBq, total radioactivity
Protocol: (§1) The in vivo tumor-targeting efficacy of [^64Cu]1 was evaluated in nude mice bearing U87MG human glioma xenograft tumors (n=3) by static microPET scans at 2, 4, and 20 h after tail-vain injection of [^64Cu]1. U87MG tumors were clearly visualized at all time points examined. […] At 2 h post injection, the tumor/liver, tumor/kidneys, and tumor/muscle ratios reached 2.82±0.76, 2.22±1.49, and 11.79±2.65, respectively. Consequently, the high tumor-to-nontumor ratios provided excellent contrast for PET imaging. Blocking experiment was conducted to confirm the integrin αvβ3 specificity of [^64Cu]1.
(§2) All animal studies were approved by the University of Southern California Institutional Animal Care and Use Committee. Female athymic nude mice (about 4-6 weeks old, with a body weight of 20-25 g) were obtained from Harlan Laboratories (Livermore, Calif.). The U87MG human glioma xenograft model was generated by subcutaneous injection of 5×10^6 U87MG human glioma cells into the front flank of female athymic nude mice. The tumors were allowed to grow 3-5 weeks until 200-500 mm^3 in volume. Tumor growth was followed by caliper measurements of the perpendicular dimensions.
(§3) MicroPET scans and imaging analysis were performed using a rodent scanner (microPET R4 scanner; Siemens Medical Solutions). About 7.4 MBq of [^64Cu]1 was intravenously injected into each mouse (n=3) under isoflurane anesthesia. Five-minute static scans were acquired at 2, 4, and 20 h pi. The images were reconstructed by a two-dimensional ordered-subsets expectation maximum (OSEM) algorithm. For each microPET scan, regions of interest were drawn over the tumor, normal tissue, and major organs on the decay-corrected whole-body coronal images. The radioactivity concentration (accumulation) within the tumor, muscle, liver, and kidneys were obtained from the mean value within the multiple regions of interest and then converted to % ID/g.

[3] = test system: U87MG human glioma xenograft tumors; assay: in vivo; set-up: species or system mice; settings: mouse, 10 mg/kg
Protocol: as §1, §2, §3

Row | Compound | IC50 (integrin αvβ3) [nM] | release of 64Cu from the conjugate ([1]; PBS buffer, over a period of 24 h, radio-HPLC) | parent [64Cu]1 remaining (radiochemical purity) ([1]; 1 h) [%] | parent [64Cu]1 remaining (radiochemical purity) ([1]; 6 h) [%] | parent [64Cu]1 remaining (radiochemical purity) ([1]; 24 h) [%] | logP [2] | tissue uptake at 2 h (in vivo) [%ID/g] | tissue uptake at 4 h (in vivo) [%ID/g] | tissue uptake at 20 h (in vivo) [%ID/g] | tissue to tissue ratio at 2 h (in vivo; tumor/kidneys ratio) | tissue to tissue ratio at 2 h (in vivo; tumor/liver ratio) | tissue to tissue ratio at 2 h (in vivo; tumor/muscle ratio) | uptake values of normal organs (liver, kidneys, muscle) with blocking [3]
1 | N=C(N)NCCC[C@@H]1NC(=O)[C@H](CCCCNC(=O)C2O[C@H](CNC(=O)Cn3nnc4c3-c3ccccc3CN(C(=O)CCNC(=O)CCOCCOCCOCCOCCOCCC(=O)N[C@]35CNCCNC[C@](N)(CNCCNC3)CNCCNC5)c3ccccc3-4)[C@H](O)C(O)[C@@H]2O)NC(=O)[C@@H](Cc2ccccc2)NC(=O)[C@H](CC(=O)O)NC(=O)CNC1=O (stereo partly shown) [compound 1] | 170 ± 3 | – | – | – | – | – | – | – | – | – | – | – | –
2 | N=C(N)NCCC[C@@H]1NC(=O)[C@H](CCCCNC(=O)[C@H]2O[C@@H](CNC(=O)Cn3nnc4c3-c3ccccc3CN(C(=O)CCNC(=O)CCOCCOCCOCCOCCOCCC(=O)NC35CNCCNCC(N)(CNCCNC3)CNCCNC5)c3ccccc3-4)[C@H](O)[C@@H](O)[C@H]2O)NC(=O)[C@@H](Cc2ccccc2)NC(=O)[C@H](CC(=O)O)NC(=O)CNC1=O [[^64Cu]1, metal not drawn] | – | no release of ^64Cu from the conjugate | > 99 | 98 | 96 | 4.94 ± 0.1 | 4.96 ± 0.65 | 4.11 ± 0.48 | 2.41 ± 0.31 | 2.22 ± 1.49 | 2.82 ± 0.76 | 11.8 ± 2.65 | lower than those without coinjection of c(RGDyK)

Reference: patent US9447149B2, “Methods and compositions for the rapid synthesis of radiometal-labeled probes” (University of Southern California, priority 2012, dated 2016)
